Measurements reported in patent US20230212587A1, “Mutant Hydroxyphenylpyruvate Dioxygenase Polypeptide, Encoding Gene Thereof and Use Therefor” (Beijing Dabeinong Biotechnology Co., Ltd., priority 2019, published 2023).

Tested on: Arabidopsis thaliana T1 plants
Test: Topramezone tolerance of transgenic Arabidopsis thaliana T1 plants (pesticide damage grade by bleached leaf area, score, resistance evaluation)
Assay type: in vivo
Design: score: scale not given here
Conditions: for Classification and statistics of the grade of pesticide damage Grade 0 / Classification and statistics of the grade of pesticide damage Grade 1 / Classification and statistics of the grade of pesticide damage Grade 2 / Classification and statistics of the grade of pesticide damage Grade 3 / Classification and statistics of pesticide damage grade Grade 0 / Classification and statistics of pesticide damage grade Grade 1 / Classification and statistics of pesticide damage grade Grade 2 / Classification and statistics of pesticide damage grade Grade 3: number of plants (of 16) in this grade; for Classification and statistics of the grade of pesticide damage Grade 0 / Classification and statistics of the grade of pesticide damage Grade 1 / Classification and statistics of the grade of pesticide damage Grade 2 / Classification and statistics of the grade of pesticide damage Grade 3 / Scores / Resistance evaluation / Classification and statistics of pesticide damage grade Grade 0 / Classification and statistics of pesticide damage grade Grade 1 / Classification and statistics of pesticide damage grade Grade 2 / Classification and statistics of pesticide damage grade Grade 3: 7 DAT
Description: The Arabidopsisthaliana T1 plants into which the AsHPPDm-F372A-02 nucleotide sequence was introduced, Arabidopsis thaliana T1 plants into which the AsHPPD-02 nucleotide sequence was introduced and wild-type Arabidopsisthaliana plants (18 days after sowing) were sprayed with topramezone at four different concentrations, i.e., 25 g ai/ha (one-fold field concentration, 1×), 50 g ai/ha (two-fold field concentration, 2×), 100 g ai/ha (four-fold field concentration, 4×) and 0 g ai/ha (water, 0×) to determine the tolerance of Arabidopsisthaliana to the herbicide. The degree of damage caused by the herbicide was measured for each plant according to the proportion of bleached leaf area (the proportion of bleached leaf area=bleached leaf area/total leaf area×100%) 7 days after spraying (7 DAT): the case where there is basically no bleached phenotype is defined as grade 0, the case where the proportion of bleached leaf area is less than 50% is defined as grade 1,the case where the proportion of bleached leaf area is more than 50% is defined as grade 2, and the case where the proportion of bleached leaf area is 100% grade is defined as grade 3.
According to the method as described above in point 6 of Example 1, the aforementioned Arabidopsisthaliana T1 plants and wild-type Arabidopsisthaliana plants (18 days after sowing) were sprayed with topramezone at three different concentrations respectively, i.e., 25 g ai/ha (one-fold field concentration, 1×), 100 g ai/ha (four-fold field concentration, 4×) and 0 g ai/ha(water, 0×) to detect the tolerance of Arabidopsisthaliana to the herbicide.
According to the method as described above in point 6 of Example 1, the aforementioned Arabidopsisthaliana T1 plants and wild-type Arabidopsisthaliana plants (18 days after sowing) were sprayed with topramezone at three different concentrations respectively, i.e., 25 g ai/ha (one-fold field concentration, 1x), 100 g ai/ha (four-fold field concentration, 4x) and 0 g ai/ha (water, 0x) to detect the tolerance of Arabidopsisthaliana to the herbicide.
According to the method as described above in point 6 of Example 1, the above-mentioned Arabidopsisthaliana T1 plants, Arabidopsisthaliana T1 plants into which the AsHPPD-02 nucleotide sequence was introduced, Arabidopsisthaliana T1 plants into which the PfHPPD-02 nucleotide sequence was introduced, and wild-type Arabidopsisthaliana plants (18 days after sowing) were sprayed with topramezone at four different concentrations respectively, that is, 25 g ai/ha (one-fold field concentration, 1x), 50 g ai/ha (two-fold field concentration, 2x), 100 g ai/ha (four-fold field concentration, 4x) and 0 g ai/ha (water, Ox) to detect the herbicide tolerance of Arabidopsisthaliana.
According to the method as described in point 6 of Example 1, the above-mentioned Arabidopsisthaliana T1 plants and wild-type Arabidopsisthaliana plants (18 days after sowing) were sprayed with topramezone at two different concentrations respectively, that is, 25 g ai/ha (one-fold field concentration, 1x) and 100 g ai/ha (four-fold field concentration, 4x) to detect the herbicide tolerance of Arabidopsisthaliana,. […]

[1] = non-372 position mutants, number of plants (of 20) in this grade, topramezone 25 g ai/ha (1x)
[2] = non-372 position mutants, number of plants (of 20) in this grade, topramezone 100 g ai/ha (4x)
[3] = topramezone 25 g ai/ha (1x), HPPD from Avena sativa source
[4] = topramezone 25 g ai/ha (1x), number of plants, HPPD from Avena sativa source
[5] = topramezone 25 g ai/ha, mutation combination, Table 8
[6] = topramezone 50 g ai/ha (2x), HPPD from Avena sativa source
[7] = topramezone 50 g ai/ha (2x), number of plants, HPPD from Avena sativa source
[8] = topramezone 100 g ai/ha (4x), HPPD from Avena sativa source
[9] = topramezone 100 g ai/ha (4x), number of plants, HPPD from Avena sativa source
[10] = topramezone 100 g ai/ha, mutation combination, Table 8
[11] = HPPDs from different species, topramezone 25 g ai/ha (1x)
[12] = HPPDs from different species, topramezone 100 g ai/ha (4x)

B1: AsHPPD-02: Avena sativa native HPPD, SEQ ID NO: 1; gene SEQ ID NO: 3 (protein, listed as Avena sativa)
chain: MPPTPATATGAAAAAVTPEHAARSFPRVVRVNPRSDRFPVLSFHHVELWCADAASAAGRFSFALGAPLAARSDLSTGNSAHASLLLRSGALAFLFTAPYAPPPQEAATAAATASIPSFSADAARTFAAAHGLAVRSVGVRVADAAEAFRVSVAGGARPAFAPADLGHGFGLAEVELYGDVVLRFVSYPDETDLPFLPGFERVSSPGAVDYGLTRFDHVVGNVPEMAPVIDYMKGFLGFHEFAEFTAEDVGTTESGLNSVVLANNSEAVLLPLNEPVHGTKRRSQIQTYLEYHGGPGVQHIALASNDVLRTLREMRARTPMGGFEFMAPPQAKYYEGVRRIAGDVLSEEQIKECQELGVLVDRDDQGVLLQIFTKPVGDRPTFFLEMIQRIGCMEKDEVGQEYQKGGCGGFGKGNFSELFKSIEDYEKSLEVKQSVVAQKS
modifications: AsHPPD Amido Acid Sequence
tolerance to topramezone, in words (Arabidopsis thaliana T1 plants sprayed with topramezone): no or relatively low tolerance
Grade 0 [1]: 0
Grade 1 [1]: 5
Grade 2 [1]: 13
Grade 3 [1]: 2
Grade 0 [2]: 0
Grade 1 [2]: 0
Grade 2 [2]: 4
Grade 3 [2]: 16
score (non-372 position mutants, score for pesticide damage 0-100, topramezone 25 g ai/ha (1x)): 62
score (non-372 position mutants, score for pesticide damage 0-100, topramezone 100 g ai/ha (4x)): 93
Resistance Grade (non-372 position mutants, topramezone 25 g ai/ha (1x)): poorly resistant (poorly resistant plants (scores 34-67))
Resistance Grade (non-372 position mutants, topramezone 100 g ai/ha (4x)): non-resistant (non-resistant plants (scores 68-100))
Classification and statistics of the grade of pesticide damage Grade 0 (topramezone 25 g ai/ha (1x)): 0
Classification and statistics of the grade of pesticide damage Grade 1 (topramezone 25 g ai/ha (1x)): 4
Classification and statistics of the grade of pesticide damage Grade 2 (topramezone 25 g ai/ha (1x)): 12
Classification and statistics of the grade of pesticide damage Grade 3 (topramezone 25 g ai/ha (1x)): 0
Classification and statistics of the grade of pesticide damage Grade 0 (topramezone 50 g ai/ha (2x)): 0
Classification and statistics of the grade of pesticide damage Grade 1 (topramezone 50 g ai/ha (2x)): 0
Classification and statistics of the grade of pesticide damage Grade 2 (topramezone 50 g ai/ha (2x)): 6
Classification and statistics of the grade of pesticide damage Grade 3 (topramezone 50 g ai/ha (2x)): 10
Classification and statistics of the grade of pesticide damage Grade 0 (topramezone 100 g ai/ha (4x)): 0
Classification and statistics of the grade of pesticide damage Grade 1 (topramezone 100 g ai/ha (4x)): 0
Classification and statistics of the grade of pesticide damage Grade 2 (topramezone 100 g ai/ha (4x)): 4
Classification and statistics of the grade of pesticide damage Grade 3 (topramezone 100 g ai/ha (4x)): 12
tolerance to topramezone, in words (saturation mutation of HPPD from Avena sativa source (label F372X = AsHPPDm-F372X), topramezone 25, 50, 100 g ai/ha): no or low tolerance
Scores (score for pesticide damage 0-100, topramezone 25 g ai/ha (1x)): 58
Scores (score for pesticide damage 0-100, topramezone 50 g ai/ha (2x)): 88
Scores (score for pesticide damage 0-100, topramezone 100 g ai/ha (4x)): 92
Resistance evaluation (topramezone 25 g ai/ha (1x)): poorly resistant (poorly resistant plants (scores 34-67))
Resistance Grade [3]: Poorly resistant
score [3]: 57
Grade 0 [4]: 2
Grade 1 [4]: 2
Grade 2 [4]: 16
Grade 3 [4]: 0
Grade 0 (number of plants) [5]: 2
Grade 1 (number of plants) [5]: 2
Grade 2 (number of plants) [5]: 16
Grade 3 (number of plants) [5]: 0
Resistance Grade [5]: Poorly resistant
score [5]: 57
Resistance evaluation (topramezone 50 g ai/ha (2x)): non-resistant (non-resistant plants (scores 68-100))
Resistance Grade [6]: Non-resistant
score [6]: 87
Grade 0 [7]: 0
Grade 1 [7]: 2
Grade 2 [7]: 4
Grade 3 [7]: 14
Resistance evaluation (topramezone 100 g ai/ha (4x)): non-resistant (non-resistant plants (scores 68-100))
Resistance Grade [8]: Non-resistant
score [8]: 93
Grade 0 [9]: 0
Grade 1 [9]: 0
Grade 2 [9]: 4
Grade 3 [9]: 16
Grade 0 (number of plants) [10]: 0
Grade 1 (number of plants) [10]: 0
Grade 2 (number of plants) [10]: 4
Grade 3 (number of plants) [10]: 16
Resistance Grade [10]: Non-resistant
score [10]: 93

B2: PfHPPD-02: native Pseudomonas fluorescens HPPD, SEQ ID NO: 27 (protein, listed as Pseudomonas fluorescens)
chain: MADLYENPMGLMGFEFIEFASPTPGTLEPIFEIMGFTKVATHRSKNVHLYRQGEINLILNNEPNSIASYFAAEHGPSVCGMAFRVKDSQKAYNRALELGAQPIHIDTGPMELNLPAIKGIGGAPLYLIDRFGEGSSIYDIDFVYLEGVERNPVGAGLKVIDHLTHNVYRGRMVYWANFYEKLFNFREARYFDIKGEYTGLTSKAMSAPDGMIRIPLNEESSKGAGQIEEFLMQFNGEGIQHVAFLTDDLVKTWDALKKIGMRFMTAPPDTYYEMLEGRLPDHGEPVDQLQARGILLDGSSVEGDKRLLLQIFSETLMGPVFFEFIQRKGDDGFGEGNFKALFESIERDQVRRGVLTAD
modifications: PfHPPD Amino Acid Sequence
Classification and statistics of pesticide damage grade Grade 0 [11]: 0
Classification and statistics of pesticide damage grade Grade 1 [11]: 0
Classification and statistics of pesticide damage grade Grade 2 [11]: 0
Classification and statistics of pesticide damage grade Grade 3 [11]: 16
Classification and statistics of pesticide damage grade Grade 0 [12]: 0
Classification and statistics of pesticide damage grade Grade 1 [12]: 0
Classification and statistics of pesticide damage grade Grade 2 [12]: 0
Classification and statistics of pesticide damage grade Grade 3 [12]: 16
Scores (HPPDs from different species, score for pesticide damage 0-100, topramezone 25 g ai/ha (1x)): 100
Scores (HPPDs from different species, score for pesticide damage 0-100, topramezone 100 g ai/ha (4x)): 100
Resistance evaluation [11]: non-resistant (non-resistant plants (scores 68-100))
Resistance evaluation [12]: non-resistant (non-resistant plants (scores 68-100))
tolerance to topramezone, in words (saturation mutation of HPPD from Pseudomonas fluorescens source (label F372X = PfHPPDm-F372X), topramezone 25, 50, 100 g ai/ha): no tolerance
Grade 0 (number of plants) [5]: 0
Grade 1 (number of plants) [5]: 0
Grade 2 (number of plants) [5]: 0
Grade 3 (number of plants) [5]: 20
Resistance Grade [5]: Non-resistant
score [5]: 100
Grade 0 (number of plants) [10]: 0
Grade 1 (number of plants) [10]: 0
Grade 2 (number of plants) [10]: 0
Grade 3 (number of plants) [10]: 20
Resistance Grade [10]: Non-resistant
score [10]: 100
